According to patent publication US20240117018A1:

Legend:
Experiment in all cases: cell-based or functional assay
[1] = target: HIV-1 Env of pseudovirus 3016.v5.c45 (HIV-1)
[2] = target: HIV-1 Env of pseudovirus P1981_C5_3 (HIV-1)
[3] = target: HIV-1 Env of pseudovirus 89-F1_2_25 (HIV-1)
[4] = target: HIV-1 Env of pseudovirus 6480.v4.c25 (HIV-1)
[5] = target: HIV-1 Env of pseudovirus R3265.c06 (HIV-1)
[6] = target: HIV-1 Env of pseudovirus T257-31 (HIV-1)
[7] = target: HIV-1 Env of pseudovirus BJOX028000.10.3 (HIV-1)
[8] = target: HIV-1 Env of pseudovirus 263-8 (HIV-1)
[9] = target: HIV-1 Env of pseudovirus X2131_C1_B5 (HIV-1)
[10] = target: HIV-1 Env of pseudovirus 0815.v3.c3 (HIV-1)
[11] = target: HIV-1 Env of pseudovirus 3817.v2.c59 (HIV-1)
[12] = target: HIV-1 Env of pseudovirus P0402_c2_11 (HIV-1)
[13] = target: HIV-1 Env of pseudovirus 6545.v4.c1 (HIV-1)
[14] = target: HIV-1 Env of pseudovirus A07412M1.vrc12 (HIV-1)
[15] = target: HIV-1 Env of pseudovirus 620345.c01 (HIV-1)
[16] = target: HIV-1 Env of pseudovirus BJOX025000.01.1 (HIV-1)
[17] = target: HIV-1 Env of pseudovirus 9004SS_A3_4 (HIV-1)
[18] = target: HIV-1 Env of pseudovirus BJOX010000.06.2 (HIV-1)
[19] = target: HIV-1 Env of pseudovirus 6811.v7.c18 (HIV-1)
[20] = target: HIV-1 Env of pseudovirus X1254_c3 (HIV-1)
[21] = target: HIV-1 Env of pseudovirus BJOX015000.11.5 (HIV-1)
[22] = target: HIV-1 Env of pseudovirus 231965.c01 (HIV-1)
[23] = target: HIV-1 Env of pseudovirus 6540.v4.c1 (HIV-1)
[24] = target: HIV-1 Env of pseudovirus 6952.v1.c20 (HIV-1)
[25] = target: HIV-1 Env of pseudovirus 3103.v3.c10 (HIV-1)
[26] = target: HIV-1 Env of pseudovirus R1166.c01 (HIV-1)
[27] = target: HIV-1 Env of pseudovirus 211-9 (HIV-1)
[28] = target: HIV-1 Env of pseudovirus 3301.v1.c24 (HIV-1)
[29] = target: HIV-1 Env of pseudovirus 191955_A11 (HIV-1)
[30] = target: HIV-1 Env of pseudovirus 235-47 (HIV-1)
[31] = target: HIV-1 Env of pseudovirus C3347.c11 (HIV-1)
[32] = target: HIV-1 Env of pseudovirus 928-28 (HIV-1)
[33] = target: HIV-1 Env of pseudovirus C4118.c09 (HIV-1)
[34] = target: HIV-1 Env of pseudovirus T255-34 (HIV-1)
[35] = target: HIV-1 Env of pseudovirus R2184.c04 (HIV-1)
[36] = target: HIV-1 Env of pseudovirus T251-18 (HIV-1)
[37] = target: HIV-1 Env of pseudovirus 231966.c02 (HIV-1)

N49P19 (antibody)
neutralization IC50 [1]: > 50 µg/mL | neutralization IC80 [1]: > 50 µg/mL | neutralization MPI [1]: 9 | neutralization IC50 [2]: 20.2 µg/mL | neutralization IC80 [2]: > 50 µg/mL | neutralization MPI [2]: 68 | neutralization IC50 [3]: > 50 µg/mL | neutralization IC80 [3]: > 50 µg/mL | neutralization MPI [3]: 7 | neutralization IC50 [4]: 3.04 µg/mL | neutralization IC80 [4]: 28.2 µg/mL | neutralization MPI [4]: 87 | neutralization IC50 [5]: 0.634 µg/mL | neutralization IC80 [5]: 2.73 µg/mL | neutralization MPI [5]: 100 | neutralization IC50 [6]: 0.661 µg/mL | neutralization IC80 [6]: 3 µg/mL | neutralization MPI [6]: 100 | neutralization IC50 [7]: 7 µg/mL | neutralization IC80 [7]: > 50 µg/mL | neutralization MPI [7]: 80 | neutralization IC50 [8]: 0.344 µg/mL | neutralization IC80 [8]: 1.51 µg/mL | neutralization MPI [8]: 99 | neutralization IC50 [9]: 2.52 µg/mL | neutralization IC80 [9]: 14.4 µg/mL | neutralization MPI [9]: 91 | neutralization IC50 [10]: 0.176 µg/mL | neutralization IC80 [10]: 0.743 µg/mL | neutralization MPI [10]: 100 | neutralization IC50 [11]: > 50 µg/mL | neutralization IC80 [11]: > 50 µg/mL | neutralization MPI [11]: 26 | neutralization IC50 [12]: 0.448 µg/mL | neutralization IC80 [12]: 2.63 µg/mL | neutralization MPI [12]: 100 | neutralization IC50 [13]: > 50 µg/mL | neutralization IC80 [13]: > 50 µg/mL | neutralization MPI [13]: 2 | neutralization IC50 [14]: 3.89 µg/mL | neutralization IC80 [14]: 48.8 µg/mL | neutralization MPI [14]: 80 | neutralization IC50 [15]: > 50 µg/mL | neutralization IC80 [15]: > 50 µg/mL | neutralization MPI [15]: 0 | neutralization IC50 [16]: > 50 µg/mL | neutralization IC80 [16]: > 50 µg/mL | neutralization MPI [16]: 24 | neutralization IC50 [17]: 0.661 µg/mL | neutralization IC80 [17]: 3.09 µg/mL | neutralization MPI [17]: 100 | neutralization IC50 [18]: 4.16 µg/mL | neutralization IC80 [18]: 19.1 µg/mL | neutralization MPI [18]: 96 | neutralization IC50 [19]: 1.3 µg/mL | neutralization IC80 [19]: 4.71 µg/mL | neutralization MPI [19]: 97 | neutralization IC50 [20]: > 50 µg/mL | neutralization IC80 [20]: > 50 µg/mL | neutralization MPI [20]: 48 | neutralization IC50 [21]: 0.756 µg/mL | neutralization IC80 [21]: 3.17 µg/mL | neutralization MPI [21]: 99 | neutralization IC50 [22]: > 50 µg/mL | neutralization IC80 [22]: > 50 µg/mL | neutralization MPI [22]: 22 | neutralization IC50 [23]: 11.2 µg/mL | neutralization IC80 [23]: > 50 µg/mL | neutralization MPI [23]: 63 | neutralization IC50 [24]: > 50 µg/mL | neutralization IC80 [24]: > 50 µg/mL | neutralization MPI [24]: 0 | neutralization IC50 [25]: > 50 µg/mL | neutralization IC80 [25]: > 50 µg/mL | neutralization MPI [25]: 0 | neutralization IC50 [26]: 0.629 µg/mL | neutralization IC80 [26]: 2.69 µg/mL | neutralization MPI [26]: 100 | neutralization IC50 [27]: 3.23 µg/mL | neutralization IC80 [27]: 19 µg/mL | neutralization MPI [27]: 93 | neutralization IC50 [28]: 0.302 µg/mL | neutralization IC80 [28]: 1.42 µg/mL | neutralization MPI [28]: 98 | neutralization IC50 [29]: > 50 µg/mL | neutralization IC80 [29]: > 50 µg/mL | neutralization MPI [29]: 16 | neutralization IC50 [30]: 0.44 µg/mL | neutralization IC80 [30]: 3.23 µg/mL | neutralization MPI [30]: 89 | neutralization IC50 [31]: 3.94 µg/mL | neutralization IC80 [31]: 25.7 µg/mL | neutralization MPI [31]: 87 | neutralization IC50 [32]: 2.73 µg/mL | neutralization IC80 [32]: 9.63 µg/mL | neutralization MPI [32]: 97 | neutralization IC50 [33]: 0.386 µg/mL | neutralization IC80 [33]: 1.36 µg/mL | neutralization MPI [33]: 100 | neutralization IC50 [34]: 0.948 µg/mL | neutralization IC80 [34]: 6.22 µg/mL | neutralization MPI [34]: 97 | neutralization IC50 [35]: 0.132 µg/mL | neutralization IC80 [35]: 0.445 µg/mL | neutralization MPI [35]: 100 | neutralization IC50 [36]: 0.938 µg/mL | neutralization IC80 [36]: 4.2 µg/mL | neutralization MPI [36]: 100 | neutralization IC50 [37]: 0.653 µg/mL | neutralization IC80 [37]: 4.55 µg/mL | neutralization MPI [37]: 100
